Data published in the Immune Epitope Database (IEDB).
Blank lines part the entries; values can stand above or below the sequence they belong to.

How the values were obtained:
HLA-B*15:02 = test: IEDB peptide-MHC binding, purified MHC/competitive/fluorescence; filed as Kd, often an IC50 or EC50 that approximates it; ≥ and ≤ were set here for values at or beyond the usual limits of such assays; conditions: source organism: Vibrio vulnificus CMCP6
HLA-A*01:01 = test: IEDB peptide-MHC binding, purified MHC/direct/fluorescence; filed as Kd, often an IC50 or EC50 that approximates it; ≥ and ≤ were set here for values at or beyond the usual limits of such assays
HLA-A*29:02 = test: as above; conditions: source organism: Sudan ebolavirus
HLA-A*68:23 = test: IEDB peptide-MHC binding, purified MHC/competitive/fluorescence; filed as Kd, often an IC50 or EC50 that approximates it; ≥ and ≤ were set here for values at or beyond the usual limits of such assays; conditions: source organism: Sudan ebolavirus
HLA-B*15:42 = test: as above
HLA-B*83:01 = test: as above
HLA-B*45:06 = test: as above
HLA-B*73:01 = test: as above
HLA-A*02:01 [1] = test: IEDB peptide-MHC binding, purified MHC/competitive/fluorescence; ≥ and ≤ were set here for values at or beyond the usual limits of such assays; conditions: source organism: Taeniopygia guttata
HLA-B*51:01 [2] = test: as above; conditions: source organism: Taeniopygia guttata
HLA-B*40:01 = test: IEDB peptide-MHC binding, purified MHC/direct/fluorescence; filed as Kd, often an IC50 or EC50 that approximates it; ≥ and ≤ were set here for values at or beyond the usual limits of such assays
HLA-B*27:20 = test: IEDB peptide-MHC binding, purified MHC/competitive/fluorescence; filed as Kd, often an IC50 or EC50 that approximates it; ≥ and ≤ were set here for values at or beyond the usual limits of such assays
HLA-A*02:01 [3] = test: IEDB peptide-MHC binding, purified MHC/direct/fluorescence; filed as Kd, often an IC50 or EC50 that approximates it; ≥ and ≤ were set here for values at or beyond the usual limits of such assays
HLA-A*69:01 = test: as above
HLA-A*02:50 = test: IEDB peptide-MHC binding, purified MHC/competitive/fluorescence; filed as Kd, often an IC50 or EC50 that approximates it; ≥ and ≤ were set here for values at or beyond the usual limits of such assays
HLA-B*57:01 = test: IEDB peptide-MHC binding, purified MHC/direct/fluorescence; filed as Kd, often an IC50 or EC50 that approximates it; ≥ and ≤ were set here for values at or beyond the usual limits of such assays; conditions: source organism: Giardia lamblia ATCC 50803
HLA-B*15:09 = test: as above; conditions: source organism: Giardia lamblia ATCC 50803
HLA-A*03:01 = test: as above; conditions: source organism: Giardia lamblia ATCC 50803
HLA-B*46:01 = test: as above; conditions: source organism: Giardia lamblia ATCC 50803
HLA-B*27:05 = test: as above; conditions: source organism: Giardia lamblia ATCC 50803
HLA-B*18:01 = test: as above; conditions: source organism: Giardia lamblia ATCC 50803
HLA-B*08:01 = test: as above; conditions: source organism: Giardia lamblia ATCC 50803
HLA-A*31:01 = test: as above; conditions: source organism: Giardia lamblia ATCC 50803
HLA-B*58:01 = test: as above; conditions: source organism: Giardia lamblia ATCC 50803
HLA-B*48:01 = test: as above; conditions: source organism: Giardia lamblia ATCC 50803
HLA-A*11:01 = test: as above; conditions: source organism: Giardia lamblia ATCC 50803
HLA-A*26:01 = test: as above; conditions: source organism: Giardia lamblia ATCC 50803
HLA-A*30:01 = test: as above; conditions: source organism: Giardia lamblia ATCC 50803
HLA-B*07:02 = test: as above; conditions: source organism: Giardia lamblia ATCC 50803
HLA-B*15:01 = test: as above; conditions: source organism: Giardia lamblia ATCC 50803
HLA-B*51:01 [4] = test: as above; conditions: source organism: Giardia lamblia ATCC 50803
HLA-B*15:17 = test: as above; conditions: source organism: Giardia lamblia ATCC 50803
HLA-C*06:02 = test: as above; conditions: source organism: human gammaherpesvirus 4
HLA-A*02:19 = test: as above; conditions: source organism: Coxiella burnetii Q321
[5] = source organism: Sudan ebolavirus
[6] = source organism: Listeria monocytogenes HPB2262
[7] = source organism: Mycobacterium tuberculosis
[8] = source organism: Mycobacterium tuberculosis H37Ra
[9] = source organism: Giardia lamblia ATCC 50803
[10] = source organism: human gammaherpesvirus 4
[11] = source organism: Coxiella burnetii

Sequence: AMRVGSSIM
Kd (HLA-B*15:02): 0.118 µM

Sequence: CTSSIQYHR
Kd (HLA-A*01:01; [5]): ≥ 20 µM
Kd (HLA-A*29:02): 1.44 µM
Kd (HLA-A*68:23): 0.0038 µM
Kd (HLA-B*15:42; [5]): ≥ 5 µM
Kd (HLA-B*83:01; [5]): ≥ 5 µM
Kd (HLA-B*45:06; [5]): ≥ 5 µM

Sequence: FETMVFPAV
Kd (HLA-B*15:42; [6]): ≥ 5 µM
Kd (HLA-B*83:01; [6]): ≥ 5 µM
Kd (HLA-B*73:01; [6]): ≥ 5 µM
Kd (HLA-B*45:06; [6]): ≥ 5 µM

IC50 (HLA-A*02:01 [1]): 0.0526 µM
IC50 (HLA-B*51:01 [2]): ≥ 20 µM
Sequence: FLLPILSQI

Sequence: KRPYVFVAA
Kd (HLA-B*73:01; source organism: Yersinia enterocolitica subsp. enterocolitica 8081): 0.0685 µM

Sequence: LEMQHLISL
Kd (HLA-B*40:01; [7]): 0.0137 µM
Kd (HLA-B*27:20; [8]): 1.11 µM
Kd (HLA-B*15:42; [8]): ≥ 5 µM
Kd (HLA-B*45:06; [8]): ≥ 5 µM

Sequence: LLYEVDGDV
Kd (HLA-A*02:01 [3]; [7]): ≥ 20 µM
Kd (HLA-A*69:01; [7]): ≥ 20 µM
Kd (HLA-A*02:50; source organism: Mycobacterium tuberculosis variant bovis BCG str. Pasteur 1173P2): 1.13 µM

Sequence: RPALVVDTP
Kd (HLA-B*57:01): ≥ 20 µM
Kd (HLA-B*15:09): ≥ 20 µM
Kd (HLA-A*03:01): ≥ 20 µM
Kd (HLA-A*02:01 [3]; [9]): ≥ 20 µM
Kd (HLA-B*46:01): ≥ 20 µM
Kd (HLA-B*27:05): ≥ 20 µM
Kd (HLA-B*18:01): ≥ 20 µM
Kd (HLA-B*08:01): ≥ 20 µM
Kd (HLA-A*31:01): ≥ 20 µM
Kd (HLA-B*58:01): ≥ 20 µM
Kd (HLA-A*01:01; [9]): ≥ 20 µM
Kd (HLA-B*48:01): ≥ 20 µM
Kd (HLA-A*11:01): ≥ 20 µM
Kd (HLA-A*26:01): ≥ 20 µM
Kd (HLA-A*30:01): ≥ 20 µM
Kd (HLA-B*07:02): ≥ 20 µM
Kd (HLA-B*40:01; [9]): ≥ 20 µM
Kd (HLA-B*15:01): ≥ 20 µM
Kd (HLA-B*51:01 [4]): ≥ 20 µM
Kd (HLA-A*69:01; [9]): ≥ 20 µM
Kd (HLA-B*15:17): ≥ 20 µM

Sequence: RRYASQTEL
Kd (HLA-C*06:02): 0.021 µM
Kd (HLA-B*27:20; [10]): 0.0002 µM
Kd (HLA-B*15:42; [10]): ≥ 5 µM
Kd (HLA-B*83:01; [10]): ≥ 5 µM
Kd (HLA-B*45:06; [10]): ≥ 5 µM

Sequence: YQLGDYFFV
Kd (HLA-A*02:01 [3]; [11]): 0.0015 µM
Kd (HLA-A*02:19): 0.002 µM
Kd (HLA-A*69:01; [11]): 0.0013 µM
Kd (HLA-A*02:50; source organism: Coxiella burnetii Dugway 5J108-111): ≤ 0.0001 µM
